Laboratory results as given in patent US20030013152A1 (University of Texas, published 2003).

T1: TFIIAα/β/γ: recombinant rat TFIIAα/β (p55) together with recombinant rat TFIIAγ (p12) (rat, UniProt O08949 1-377; O08950 1-109)
T1 construct: also called TFIIAα/β (p55) and TFIIAγ (p12)
T1 sequence (looked up) 1: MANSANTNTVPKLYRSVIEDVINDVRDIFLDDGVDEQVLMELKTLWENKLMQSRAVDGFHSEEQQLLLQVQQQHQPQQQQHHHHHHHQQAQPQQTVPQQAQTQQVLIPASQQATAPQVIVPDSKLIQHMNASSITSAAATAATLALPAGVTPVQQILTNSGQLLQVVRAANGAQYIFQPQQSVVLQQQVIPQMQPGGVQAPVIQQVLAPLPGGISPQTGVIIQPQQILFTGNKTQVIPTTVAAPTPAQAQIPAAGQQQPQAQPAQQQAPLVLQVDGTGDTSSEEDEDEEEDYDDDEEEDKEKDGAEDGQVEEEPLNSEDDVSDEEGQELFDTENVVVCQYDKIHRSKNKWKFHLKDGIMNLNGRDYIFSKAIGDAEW
T1 sequence (looked up) 2: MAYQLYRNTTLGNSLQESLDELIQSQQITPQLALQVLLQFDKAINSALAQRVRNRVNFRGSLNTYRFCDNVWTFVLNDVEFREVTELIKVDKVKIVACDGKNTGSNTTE

T2: ALF/γ: recombinant human ALF (p69) together with recombinant rat TFIIAγ (p12) (human; rat, UniProt O08950 1-109)
T2 construct: also called ALF (p69) and TFIIAγ (p12)
T2 sequence 1: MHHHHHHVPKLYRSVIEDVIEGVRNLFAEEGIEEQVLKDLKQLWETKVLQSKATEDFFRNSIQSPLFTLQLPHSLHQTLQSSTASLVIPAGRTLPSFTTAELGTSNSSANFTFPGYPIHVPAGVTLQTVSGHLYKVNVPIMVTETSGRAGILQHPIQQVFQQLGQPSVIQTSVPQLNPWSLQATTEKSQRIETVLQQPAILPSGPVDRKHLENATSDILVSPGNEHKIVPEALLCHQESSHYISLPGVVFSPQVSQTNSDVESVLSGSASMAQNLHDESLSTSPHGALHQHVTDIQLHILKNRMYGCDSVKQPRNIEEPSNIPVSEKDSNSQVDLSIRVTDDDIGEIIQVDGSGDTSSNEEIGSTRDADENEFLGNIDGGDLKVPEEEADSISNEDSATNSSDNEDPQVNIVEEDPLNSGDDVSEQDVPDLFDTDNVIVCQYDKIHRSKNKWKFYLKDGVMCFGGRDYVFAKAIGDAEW
T2 sequence 2: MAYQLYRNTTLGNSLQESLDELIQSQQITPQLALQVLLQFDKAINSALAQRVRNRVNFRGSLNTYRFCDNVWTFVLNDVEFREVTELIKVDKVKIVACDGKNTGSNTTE

T3: recombinant rat TFIIAα/β (p55) subunit (rat, UniProt O08949 1-377)
T3 construct: also called rat p55
T3 sequence (looked up): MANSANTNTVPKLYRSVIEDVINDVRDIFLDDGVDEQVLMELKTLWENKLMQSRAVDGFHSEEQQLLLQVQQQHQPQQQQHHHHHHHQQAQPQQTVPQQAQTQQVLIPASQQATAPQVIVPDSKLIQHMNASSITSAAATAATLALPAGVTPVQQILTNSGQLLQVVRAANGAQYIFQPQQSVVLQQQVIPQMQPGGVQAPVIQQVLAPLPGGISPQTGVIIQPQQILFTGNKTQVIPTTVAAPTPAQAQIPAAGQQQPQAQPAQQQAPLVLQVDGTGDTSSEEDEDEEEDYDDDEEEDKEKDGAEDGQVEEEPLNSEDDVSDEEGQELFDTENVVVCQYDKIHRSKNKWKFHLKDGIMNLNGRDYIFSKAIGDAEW

T4: recombinant histidine-tagged human ALF (TFIIAα/β-like factor) polypeptide, residues Val7 to Trp478 (human, UniProt Q9UNN4 7-478)
T4 construct: 479 amino acid polypeptide expressed in E. coli from pRSET-ALF, purified under denaturing conditions on Ni-NTA and renatured; migrates at 69 kD; also called p69; p69 (ALF)
T4 sequence: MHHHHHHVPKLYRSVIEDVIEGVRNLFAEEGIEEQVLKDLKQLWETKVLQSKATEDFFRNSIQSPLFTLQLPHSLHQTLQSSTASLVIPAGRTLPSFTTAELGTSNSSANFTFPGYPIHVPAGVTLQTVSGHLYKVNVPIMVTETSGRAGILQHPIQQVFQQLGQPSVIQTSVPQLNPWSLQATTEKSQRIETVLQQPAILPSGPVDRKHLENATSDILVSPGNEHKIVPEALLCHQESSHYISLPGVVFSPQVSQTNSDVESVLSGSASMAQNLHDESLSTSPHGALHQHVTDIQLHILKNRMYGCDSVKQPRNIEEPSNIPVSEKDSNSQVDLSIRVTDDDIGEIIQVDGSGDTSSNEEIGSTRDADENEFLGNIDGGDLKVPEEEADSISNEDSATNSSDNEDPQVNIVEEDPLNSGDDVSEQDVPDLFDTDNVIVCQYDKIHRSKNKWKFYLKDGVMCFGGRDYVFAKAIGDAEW


Columns and labels:
[1] = target: T1, TFIIAα/β/γ: recombinant rat TFIIAα/β …; experiment: electrophoretic mobility shift assay on labelled AdML TATA oligonucleotide, under conditions in which TBP alone does not bind DNA
Procedure: (§1) Mobility shift assays were performed using 10 fmol of a [γ-³²P] ATP kinase-labeled TATA-containing an oligonucleotide that spans nucleotides −40 to −16 of the Adenovirus Major Late (AdML) promoter. Binding reactions (25 μl final volume) were performed in 10 mM HEPES (pH 7.9), 2% (wt/vol) PEG-8000, 60 mM KCl, 5 mM DTT, 0.2 mM EDTA, 5 mM ammonium sulfate, 4 mM MgC1₂, and 8% glycerol. Recombinant rat p55 (30 ng; 29 nM), rat p12 (1.1 ug; 3.5 uM), human ALF (180 ng; 137 nM) and human TBP (125 ng; 133 nM) were added to reactions as indicated. Reactions were incubated for 30 minutes at room temperature, and complexes are separated on native 5% polyacrylamide gels containing 0.5×TBE and 5% glycerol. Competition experiments contain either cold AdML TATA or SP1 oligonucleotides, and antibody supershift reactions contain 2-4 μl of rabbit polyclonal antiserum raised against the 55 kD hTFIIAα/β polypeptide (3).
(§2) The activity of polypeptides was tested in electrophoretic mobility shift assays under conditions in which TATA-Binding Protein (TBP) alone is unable to bind DNA (FIG. 12B, lane 1). The presence of TFIIAα/β (p55) and TFIIAγ (p12) stabilized the TBP-DNA interaction via TFIIAα/β/γ-TBP-DNA complex formation (lane 2). Likewise, the recombinant ALF (p69) polypeptide, in conjunction with the TFIIAγ (p12) subunit, was able to form ALF/γ-TBP-DNA complexes (lane 5). […]

[2] = target: T2, ALF/γ: recombinant human ALF (p69) …; experiment: as above
Procedure: as §1, §2

[3] = target: T3, recombinant rat TFIIAα/β (p55) subunit; experiment: electrophoretic mobility shift assay; both subunits stand in one complex with TBP and DNA
Procedure: as §1, §2

[4] = target: T4, recombinant histidine-tagged human ALF …; experiment: as above
Procedure: as §1, §2

Row | binding result [1] | binding result [2] | binding result [3] | binding result [4] | Binder
1 | binds | binds |  |  | recombinant histidine-tagged human TATA binding protein (TBP) (other, UniProt P20226 1-339, looked up, In the mobility shift assay TBP stood together with a labelled AdML TATA oligonucleotide (-40 to -16); also called human TBP; not shown: histidine tag) MDQNNSLPPYAQGLASPQGAMTPGIPIFSPMMPYGTGLTPQPIQNTNSLSILEEQQRQQQQQQQQQQQQQQQQQQQQQQQQQQQQQQQQQQQQQQAVAAAAVQQSTSQQATQGTSGQAPQLFHSQTLTTAPLPGTTPLYPSPMTPMTPITPATPASESSGIVPQLQNIVSTVNLGCKLDLKTIALRARNAEYNPKRFAAVIMRIREPRTTALIFSSGKMVCTGAKSEEQSRLAARKYARVVQKLGFPAKFLDFKIQNMVGSCDVKFPIRLEGLVLTHQQFSSYEPELFPGLIYRMIKPRIVLLIFVSGKVVLTGAKVRAEIYEAFENIYPILKGFRKTT
2 |  |  | binds | binds | recombinant rat TFIIAγ (p12) subunit (other, UniProt O08950 1-109, looked up, also called rat p12; p12 (TFIIAγ)) MAYQLYRNTTLGNSLQESLDELIQSQQITPQLALQVLLQFDKAINSALAQRVRNRVNFRGSLNTYRFCDNVWTFVLNDVEFREVTELIKVDKVKIVACDGKNTGSNTTE
